Assay results: PMC6426777 (Frontiers in Immunology, 2019)

Biological target: T1, recombinant wild-type C1q (human, UniProt P02745 23-245; P02746 28-253; P02747 29-245)
T1 construct: C1q A chain, human; C1q B chain, human; C1q C chain, human; Hexamer of A-B-C heterotrimers (18 chains); also called C1qWT; WT; source: purified from culture supernatant (IgG-ovalbumin aggregates, anti-FLAG M2 column); copies: 6 + 6 + 6
Assay: SPR; Biacore 3000, 25°C; C1q variants immobilised on CM5 chips by amine coupling; partners injected at 20 μl/min in 50 mM Tris-HCl, 150 mM NaCl, 2 mM CaCl2, 0.005% surfactant P20, pH 7.4; BSA reference surface; global fit to 1:1 Langmuir model; apparent KD = kd/ka
Details: both partners purified

T1 sequence (P02745 23-245, chain 1 of 3): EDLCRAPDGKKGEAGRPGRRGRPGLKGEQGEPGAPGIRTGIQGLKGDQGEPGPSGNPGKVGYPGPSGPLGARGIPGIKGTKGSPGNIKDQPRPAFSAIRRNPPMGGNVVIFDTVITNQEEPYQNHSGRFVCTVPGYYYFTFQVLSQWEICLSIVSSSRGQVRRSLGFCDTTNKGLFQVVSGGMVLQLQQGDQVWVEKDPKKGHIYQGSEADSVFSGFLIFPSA
T1 sequence (P02746 28-253, chain 2 of 3): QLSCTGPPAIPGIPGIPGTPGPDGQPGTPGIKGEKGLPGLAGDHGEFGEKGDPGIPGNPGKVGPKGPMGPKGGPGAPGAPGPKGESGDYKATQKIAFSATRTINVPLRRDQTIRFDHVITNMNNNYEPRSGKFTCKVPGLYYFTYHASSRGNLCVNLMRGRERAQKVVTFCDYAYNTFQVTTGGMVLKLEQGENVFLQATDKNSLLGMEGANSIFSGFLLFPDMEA
T1 sequence (P02747 29-245, chain 3 of 3): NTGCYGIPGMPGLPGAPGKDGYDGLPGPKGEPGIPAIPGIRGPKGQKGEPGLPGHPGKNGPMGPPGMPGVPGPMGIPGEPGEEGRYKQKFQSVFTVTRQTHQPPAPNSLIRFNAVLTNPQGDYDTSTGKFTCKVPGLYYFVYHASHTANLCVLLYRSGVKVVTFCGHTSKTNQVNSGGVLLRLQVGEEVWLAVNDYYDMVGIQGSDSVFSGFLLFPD

B1: recombinant human MASP-2 dimer (enzyme, UniProt O00187 16-686, looked up)
chain: TPLGPKWPEPVFGRLASPGFPGEYANDQERRWTLTAPPGYRLRLYFTHFDLELSHLCEYDFVKLSSGAKVLATLCGQESTDTERAPGKDTFYSLGSSLDITFRSDYSNEKPFTGFEAFYAAEDIDECQVAPGEAPTCDHHCHNHLGGFYCSCRAGYVLHRNKRTCSALCSGQVFTQRSGELSSPEYPRPYPKLSSCTYSISLEEGFSVILDFVESFDVETHPETLCPYDFLKIQTDREEHGPFCGKTLPHRIETKSNTVTITFVTDESGDHTGWKIHYTSTAQPCPYPMAPPNGHVSPVQAKYILKDSFSIFCETGYELLQGHLPLKSFTAVCQKDGSWDRPMPACSIVDCGPPDDLPSGRVEYITGPGVTTYKAVIQYSCEETFYTMKVNDGKYVCEADGFWTSSKGEKSLPVCEPVCGLSARTTGGRIYGGQKAKPGDFPWQVLILGGTTAAGALLYDNWVLTAAHAVYEQKHDASALDIRMGTLKRLSPHYTQAWSEAVFIHEGYTHDAGFDNDIALIKLNNKVVINSNITPICLPRKEAESFMRTDDIGTASGWGLTQRGFLARNLMYVDIPIVDHQKCTAAYEKPPYPRGSVTANMLCAGLESGGKDSCRGDSGGALVFLDSETERWFVGGIVSWGSMNCGEAGQYGVYTKVINYIPWIENIISDF
- Kd: 5.04 nM
- koff: 0.00234 s⁻¹
- kon: 463000 M⁻¹ s⁻¹
